Data: patent EP4722253A1

Target: HER2 expressed on JIMT-1 cells (UniProt P04626)
Assay: flow cytometry on JIMT-1 cells, antibody at 100 nM, FITC secondary

- MFI: 12500
Substance: IgG control (antibody)
